The values below come from publication PMC9628034.

This assay concerns the target apolipoprotein E, apoE4 isoform, of human cerebrospinal fluid (human (endogenous in CSF)) (UniProt P02649). Description: native gel or EMSA; blue-native PAGE 4-16% of unheated AD CSF; western blot with AB178479; dimer/monomer quotient from band intensities.

For the substance “apolipoprotein E, apoE4 isoform, of human cerebrospinal fluid (from UniProt P02649 19-317) (natural protein)”, the ratio D/M (apoE dimer/monomer quotient) is 0.24.
